Experimental data taken from the supplement of paper PMC9112550, “Optimization of the antimicrobial peptide Bac7 by deep mutational scanning” (BMC Biology, 2022).
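Further: peptides expressed intracellularly from a pBAD plasmid library in pooled LB shake-flask culture, induced with 0.3% L-arabinose, DNA abundance read by NGS, three biological replicates, DESeq2 with apeglm shrinkage.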

What follows are sequences tested on Escherichia coli TOP10 (assay: shrunken log2 fold change of peptide-encoding DNA abundance (4.5 h post-induction vs induction); higher = less antimicrobial activity (less host growth inhibition)). Details: time post-induction: 4.5 h; library: site-saturation at positions 5, 18, 19, 20.
RRIRRRPPRLPRPRPRPWDKPRP was tested, and the “shrunken log2 fold change” value was 0.0425.
In the case of RRIRYRPPRLPRPRPRPGTCPRP, the “shrunken log2 fold change” value is reported as -0.729.
For RRIRNRPPRLPRPRPRPYTLPRP, the “shrunken log2 fold change” value was -0.288.
For RRIRWRPPRLPRPRPRPWFHPRP, the “shrunken log2 fold change” value was -0.125.
With RRIRCRPPRLPRPRPRPFQHPRP the “shrunken log2 fold change” value was -0.221.
In the case of RRIRDRPPRLPRPRPRPHFGPRP, the “shrunken log2 fold change” value is reported as 0.0884.
RRIRGRPPRLPRPRPRPHRLPRP was tested, and the “shrunken log2 fold change” value was 0.14.
RRIRFRPPRLPRPRPRPGCEPRP was tested, and the “shrunken log2 fold change” value was 0.187.
RRIRNRPPRLPRPRPRPESGPRP was tested, and the “shrunken log2 fold change” value was -0.0271.
With RRIRIRPPRLPRPRPRPSRKPRP the “shrunken log2 fold change” value was -0.148.
RRIRLRPPRLPRPRPRPGWYPRP was tested, and the “shrunken log2 fold change” value was 0.354.
RRIRWRPPRLPRPRPRPGDTPRP was tested, and the “shrunken log2 fold change” value was -0.0199.
With RRIRQRPPRLPRPRPRPQGRPRP the “shrunken log2 fold change” value was -0.0215.
For RRIRQRPPRLPRPRPRPSFTPRP, the “shrunken log2 fold change” value was -1.12.
For RRIRERPPRLPRPRPRPVARPRP, the “shrunken log2 fold change” value was -0.168.
In the case of RRIRGRPPRLPRPRPRPSKHPRP, the “shrunken log2 fold change” value is reported as -0.0347.
With RRIRHRPPRLPRPRPRPSLYPRP the “shrunken log2 fold change” value was 0.07.
For RRIRKRPPRLPRPRPRPPAFPRP, the “shrunken log2 fold change” value was 0.309.
In the case of RRIRSRPPRLPRPRPRPDWHPRP, the “shrunken log2 fold change” value is reported as -0.195.
With RRIRFRPPRLPRPRPRPIMWPRP the “shrunken log2 fold change” value was 0.0691.
In the case of RRIRFRPPRLPRPRPRPFMRPRP, the “shrunken log2 fold change” value is reported as 0.559.
RRIRFRPPRLPRPRPRPEIFPRP was tested, and the “shrunken log2 fold change” value was -0.139.
For RRIRLRPPRLPRPRPRPHHWPRP, the “shrunken log2 fold change” value was -0.124.
In the case of RRIRIRPPRLPRPRPRPLNLPRP, the “shrunken log2 fold change” value is reported as -0.597.
With RRIRHRPPRLPRPRPRPHNIPRP the “shrunken log2 fold change” value was -0.209.
RRIRGRPPRLPRPRPRPMYVPRP was tested, and the “shrunken log2 fold change” value was -0.0802.
With RRIRDRPPRLPRPRPRPDNVPRP the “shrunken log2 fold change” value was -0.273.
RRIRARPPRLPRPRPRPNTVPRP was tested, and the “shrunken log2 fold change” value was 0.0514.
With RRIRNRPPRLPRPRPRPRLSPRP the “shrunken log2 fold change” value was 0.0939.
In the case of RRIRPRPPRLPRPRPRPGYWPRP, the “shrunken log2 fold change” value is reported as 0.278.
RRIRLRPPRLPRPRPRPKLYPRP was tested, and the “shrunken log2 fold change” value was 0.0148.
RRIRWRPPRLPRPRPRPCIRPRP was tested, and the “shrunken log2 fold change” value was -0.147.
RRIRTRPPRLPRPRPRPWRPPRP was tested, and the “shrunken log2 fold change” value was 0.00182.
RRIRWRPPRLPRPRPRPVNMPRP was tested, and the “shrunken log2 fold change” value was -0.101.
With RRIRPRPPRLPRPRPRPTRCPRP the “shrunken log2 fold change” value was 0.279.
For RRIRVRPPRLPRPRPRPMPQPRP, the “shrunken log2 fold change” value was 0.311.
For RRIRYRPPRLPRPRPRPFQTPRP, the “shrunken log2 fold change” value was -0.0251.
In the case of RRIRMRPPRLPRPRPRPSSVPRP, the “shrunken log2 fold change” value is reported as 3.19.
RRIRIRPPRLPRPRPRPIKFPRP was tested, and the “shrunken log2 fold change” value was -0.933.
With RRIRFRPPRLPRPRPRPSLWPRP the “shrunken log2 fold change” value was 0.29.
For RRIRNRPPRLPRPRPRPQPRPRP, the “shrunken log2 fold change” value was 0.507.
With RRIRMRPPRLPRPRPRPAKWPRP the “shrunken log2 fold change” value was 0.708.
With RRIRFRPPRLPRPRPRPAMHPRP the “shrunken log2 fold change” value was 0.234.
In the case of RRIRQRPPRLPRPRPRPTGRPRP, the “shrunken log2 fold change” value is reported as 0.146.
In the case of RRIRIRPPRLPRPRPRPYRDPRP, the “shrunken log2 fold change” value is reported as -0.0075.
In the case of RRIRDRPPRLPRPRPRPKYIPRP, the “shrunken log2 fold change” value is reported as -0.516.
RRIRLRPPRLPRPRPRPLWKPRP was tested, and the “shrunken log2 fold change” value was -0.0337.
In the case of RRIRTRPPRLPRPRPRPARHPRP, the “shrunken log2 fold change” value is reported as 0.189.
In the case of RRIRPRPPRLPRPRPRPEAFPRP, the “shrunken log2 fold change” value is reported as -0.0543.
With RRIRYRPPRLPRPRPRPPESPRP the “shrunken log2 fold change” value was 0.0226.
For RRIRGRPPRLPRPRPRPYCGPRP, the “shrunken log2 fold change” value was -0.349.
RRIRCRPPRLPRPRPRPEDVPRP was tested, and the “shrunken log2 fold change” value was -0.0129.
With RRIRGRPPRLPRPRPRPDTPPRP the “shrunken log2 fold change” value was 0.799.
With RRIRIRPPRLPRPRPRPTTNPRP the “shrunken log2 fold change” value was -0.463.
For RRIRKRPPRLPRPRPRPSDNPRP, the “shrunken log2 fold change” value was 0.0936.
With RRIRPRPPRLPRPRPRPECSPRP the “shrunken log2 fold change” value was -0.0845.
RRIRARPPRLPRPRPRPMQYPRP was tested, and the “shrunken log2 fold change” value was 0.00958.
RRIRCRPPRLPRPRPRPIQNPRP was tested, and the “shrunken log2 fold change” value was -0.538.
With RRIRLRPPRLPRPRPRPRGMPRP the “shrunken log2 fold change” value was 0.239.
RRIRRRPPRLPRPRPRPVFQPRP was tested, and the “shrunken log2 fold change” value was 0.00379.
In the case of RRIRHRPPRLPRPRPRPQPRPRP, the “shrunken log2 fold change” value is reported as 0.282.
In the case of RRIRMRPPRLPRPRPRPWPYPRP, the “shrunken log2 fold change” value is reported as 0.213.
With RRIRVRPPRLPRPRPRPNLHPRP the “shrunken log2 fold change” value was -0.239.
In the case of RRIRPRPPRLPRPRPRPCSHPRP, the “shrunken log2 fold change” value is reported as -0.0663.
With RRIRARPPRLPRPRPRPSNYPRP the “shrunken log2 fold change” value was -0.901.
With RRIRMRPPRLPRPRPRPVARPRP the “shrunken log2 fold change” value was 0.407.
For RRIRNRPPRLPRPRPRPIEMPRP, the “shrunken log2 fold change” value was -0.141.
RRIRPRPPRLPRPRPRPHTPPRP was tested, and the “shrunken log2 fold change” value was -0.0561.
In the case of RRIRHRPPRLPRPRPRPMMNPRP, the “shrunken log2 fold change” value is reported as -0.0135.
For RRIRERPPRLPRPRPRPDFLPRP, the “shrunken log2 fold change” value was 0.0309.
RRIRLRPPRLPRPRPRPWVAPRP was tested, and the “shrunken log2 fold change” value was 0.29.
For RRIRHRPPRLPRPRPRPYFNPRP, the “shrunken log2 fold change” value was -0.882.
In the case of RRIRHRPPRLPRPRPRPVVIPRP, the “shrunken log2 fold change” value is reported as -0.759.
RRIRNRPPRLPRPRPRPFRKPRP was tested, and the “shrunken log2 fold change” value was -0.0467.
For RRIRPRPPRLPRPRPRPFMMPRP, the “shrunken log2 fold change” value was -0.845.
